Key:
[1] = system: ERK1 and ERK2 MAP kinases; experiment: FGF2-stimulated MAP kinase phosphorylation, Western blot; type: cell-based
Protocol: Since activation of MAP kinases by FGF2 is one of the earliest mitogenic signaling events within cells (Maher), the effects of LO on FGF2-stimulated MAP kinase phosphorylation were tested by Western blot analysis using an antibody specific for phospho-extracellular signal-regulated kinases 1 and 2 (ERK1 and ERK2). The amount of total ERK1 and ERK2 MAP kinases within the same cell extracts was determined by using an antibody that recognizes both the phospho- and non-phospho-forms of ERK1 and ERK2. […] Cell extracts were prepared and equal amounts of proteins (25 μg) were analyzed by 10% SDS-PAGE. Immunoblotting was performed using antibodies specific for the active forms of ERK1 and ERK2 (A) and total ERKs (B).

[2] = system: growth-arrested Swiss 3T3 cells; experiment: FGF2-stimulated cell cycle progression, FACS analysis; type: cell-based; conditions: 5 ng FGF2/ml (0.28 nM FGF2), 20 h
Protocol: The activity of native and LO-oxidized FGF2 on cell cycle progression was evaluated by using fluorescence activated cell sorting (FACS) analysis (Darzynkiewicz et al.). Swiss 3T3 cells were growth-arrested by incubation in 0.3% fetal bovine serum (FBS)/Dulbecco's Modified Eagle's Medium (DMEM) for 3 days. As depicted in FIGS. 6A-6C, the prepared growth-arrested cells were treated for 20 h at 37° C. with or without FGF2, LO, BAPN or their combinations as indicated. After treatment, cells were washed, suspended by treatment with trypsin, washed again and fixed in 0.5% formaldehyde/0.1% Triton X-100/PBS for 15 minutes on ice followed by incubation of samples in 10 μg propidium iodide and 20 units RNAse per ml of PBS for 60 minutes in the dark for DNA staining. The fluorescence intensities of each sample of 10,000 cells in G1, S and G2/M phases were measured by flow cytometry at the FL2 setting of the fluorescence activated cell sorting (FACS) instrument (Becton-Dickinson Corp.). […] LO was presented at 10 nM, FGF2 at 5 ng ml^−1 and BAPN at 100 μM. Data represent the means (+sd) of three separate experiments each assessed with duplicate dishes.

[3] = molecular target: T1, lysyl oxidase (LO) (Bos taurus, UniProt P33072); experiment: LO-dependent H2O2 release, horseradish peroxidase-coupled fluorescence assay (substrate potential for LO); type: biochemical; conditions: for substrate of LO (in words): factor as sole substrate, LO-dependent H2O2 release in vitro; for molar ratio of H2O2 released per mole of PDGF-AB at the plateau: 0.11 μM LO, 0.46 μM PDGF-AB
T1 construct: per mature LO molecule (32 kD); from tissue
T1 sequence (P33072 170-418): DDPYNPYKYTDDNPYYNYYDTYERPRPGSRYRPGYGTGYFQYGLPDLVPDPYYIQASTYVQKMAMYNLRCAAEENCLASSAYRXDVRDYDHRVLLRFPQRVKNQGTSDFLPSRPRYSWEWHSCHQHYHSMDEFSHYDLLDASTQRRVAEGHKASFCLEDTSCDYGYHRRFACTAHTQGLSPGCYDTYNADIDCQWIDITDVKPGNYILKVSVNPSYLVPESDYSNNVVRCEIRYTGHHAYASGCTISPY
Protocol: The oxidation of a primary amine substrate by LO yields stoichiometric amounts of the corresponding aldehyde, hydrogen peroxide and ammonia, as shown: RCH2NH2+O2+H2O→RCHO+H2O2+NH3 (Kagan, 1986). To assess the substrate potential of FGF2, LO-dependent H2O2 release was monitored in assays using FGF2 as the sole substrate, using both the optimum temperature for LO activity of 55° C. and the physiological temperature of 37° C. (Trackman et al., 1981).
LO reaction with FGF2 as a substrate was assessed by a horseradish peroxidase-coupled fluorescence assay for H2O2 production. Reaction mixtures contained 0.25 mg of sodium homovanillate(HVA), 40 μg of HRP, and FGF2 at doses as indicated below in 0.05 M sodium borate buffer, pH 8.2, in a final volume of 2 ml. Assays were initiated by the addition of LO to reaction mixtures. H2O2 release was continuously monitored at excitation and emission wavelengths of 315 and 425 nm, respectively, at a constant temperature of 55° C. or 37° C., as specified, in the thermostatted cuvette chamber of an SLM Aminco Bowman Series 2 Luminescence Spectrometer. All activity data were corrected for background rates of H2O2 release determined in complete assay mixtures supplemented with 200 μM BAPN, an irreversible inhibitor of LO. In FIG. 4, solid curves represent the time course of H2O2 release at 55° C. in the reaction of 0.16 μM LO with 0.23 (a), 0.45 (b) and 0.9 (c) μM FGF2, respectively. Dotted curve (d) represents the time course of H2O2 release in the reaction of 0.16 μM LO with 0.9 μM FGF2 at 37° C. The same data were obtained from three separate experiments.
Using the fluorometric assay (Trackman et al., 1981) to monitor LO-dependent H2O2 release in vitro, the substrate potential of other growth factors was also assessed. Major members of the FGF family tested included FGF 1, 4, 5, 6, 7 and EGF (note: All factors are human recombinant forms purchased from R & D Systems, Inc., Minneapolis, Minn.).
A human recombinant disulfide-linked dimer of VEGF165 (MW: 42 kDa)(R & D Systems) as a sole substrate was tested by using the standard in vitro LO catalysis assays as described above for FIG. 4 (Trackman et al., 1981). Curves represent the time course of H2O2 release at 55° C. (a) or 37° C. (b) in the reaction of 0.10 μM LO with 0.45 μM VEGF165. All activity data were corrected for background rates of H2O2 release determined in complete assay mixtures supplemented with the same amounts of LO preincubated with 100 μM BAPN for 15 min at 37° C. The same data were obtained from three separate experiments.
The standard in vitro LO catalysis assays as described above for FIG. 4 (Trackman et al., 1981) using human recombinant PDGF-AB (R & D Systems) as a sole substrate was tested. […] In FIG. 19, curves represent the time course of H2O2 release at 55° C. (a) and 37° C. (b) in the reaction of 0.11 μM LO with 0.46 μM PDGF-AB, respectively. All activity data were corrected for background rates of H2O2 release determined in complete assay mixtures supplemented with the same amounts of LO preincubated with 100 μM BAPN for 15 minutes at 37° C. The same data were obtained from three separate experiments.
To analyze the substrate potential of Tat, the standard in vitro LO catalysis assays as described in FIG. 4 (Trackman et al., 1981) was performed at the optimum temperature of 55° C. and at the physiological temperature of 37° C. A recombinant Tat with 9 lysines in a total of 86 amino acids was used as a sole substrate. FIG. 12A represents a dose and temperature-dependent response. Curves represent the time course of H2O2 release at 55° C. (solid) or 37° C. (dotted) in the reaction of 0.10 μM LO with 0.22 (a and d), 0.43 (b and e) and 0.85 (c and f) μM Tat, respectively. All activity data were corrected for background rates of H2O2 release determined in complete assay mixtures supplemented with the same amounts of LO preincubated with 100 μM BAPN for 15 min at 37° C. […]

[4] = system: FGF2 nuclear localization in Swiss 3T3 cells; experiment: FGF2 nuclear localization, immunochemical staining; type: cell-based; conditions: 0.28 nM FGF2 for 1 h
Protocol: After endocytosis, a fraction of exogenous FGF2 can enter the nucleus of a variety of cell types in a cell cycle-dependent manner (Mason; Rifkin et al.; Prats et al.; Stachowiak et al., 1996; Arese et al.; Baldin et al.). Thus, the possibility that oxidation of FGF2 by LO affects the nuclear localization of this growth factor was tested by using immunochemistry. In FIGS. […]

[5] = system: growth-arrested Swiss 3T3 cells; experiment: PDGF-AB-stimulated cell cycle progression, FACS analysis; type: cell-based; conditions: 15 ng PDGF-AB/ml (0.56 nM), 20 h
Protocol: Growth-arrested Swiss 3T3 cells were incubated for 20 h at 37° C. with or without PDGF-AB, LO, BAPN or their combinations as indicated. After incubation, FACS analysis was carried out to characterize the cell cycle progression under different conditions as described in FIG. 6. FIG. 20A represents a dose response of PDGF-AB in cell cycle progression. FIG. 20B represents the LO inhibition of PDGF-AB-stimulated cell cycle progression (the control represents cells treated with 15 ng ml^−1 PDGF-AB in the absence of added LO). FIG. 20C represents the effects of inactivation of LO by BAPN on PDGF-AB-stimulated the cell cycle progression. LO: 15 nM, PDGF-AB: 15 ng ml^−1, BAPN: 100 AM. Data represent the means (±sd) of three separate experiments each assessed with triplicate dishes.

Molecule	MAP kinase activation by FGF2 ([1]; 200 μM genistein)	relative number of cells entering the S-M phases versus control (maximum effect) [2]	tyrosine phosphorylation of 42- and 44-kDa ERKs ([1]; 5 ng/ml FGF2, 10 min, versus control)	maximum H2O2 released per mole of FGF2 ([3]; 37° C., 0.16 μM LO, 0.9 μM FGF2)	molar ratio H2O2 released per mole of FGF2 at the plateau ([3]; 55° C., 0.16 μM LO, 0.23 μM FGF2)	molar ratio H2O2 released per mole of FGF2 at the plateau ([3]; 55° C., 0.16 μM LO, 0.45 μM FGF2)	molar ratio H2O2 released per mole of FGF2 at the plateau ([3]; 55° C., 0.16 μM LO, 0.9 μM FGF2)	molar ratio H2O2 released per mole of FGF2, mean±standard deviation ([3]; 55° C., 0.16 μM LO, mean over 0.23, 0.45 and 0.9 μM FGF2)	substrate of LO (in words) [3]	nuclear FGF2 staining [4]	cells entering the S-M phases versus control (maximum effect) [5]	molar ratio of H2O2 released per mole of PDGF-AB at the plateau ([3]; 37° C.)	molar ratio of H2O2 released per mole of PDGF-AB at the plateau ([3]; 55° C.)
O=c1c(-c2ccc(O)cc2)coc2cc(O)cc(O)c12 [genistein, reference compound]	inhibited												
FGF2: 18 kDa human recombinant FGF2, 14 lysine residues		4.7 fold	markedly increased	5.3 moles of H2O2 per mole of FGF2	14.1	14.6	14.2	14.3±0.3	productive substrate for LO	significantly increased nuclear staining			
PDGF-AB: 27 kDa human recombinant PDGF-AB heterodimer, 21 lysine residues									substrates of LO		3.3 fold	3.0	19.5

Reference: patent US20030211076A1, “Compositions and methods for treatment of proliferative disorders” (priority 2003, published 2003)
